Changes are numbered by the printed parent chain. Blank lines part the entries; values can stand above or below the molecule they belong to.
Key:
hVEGF121-Q89A = target: T1, hVEGF121-Q89A (human, UniProt P15692-9 27-147, Q89A); assay: sandwich ELISA, antibody coated
T1 construct: Transiently expressed in CHO-K1 cells; culture supernatant used
T1 sequence (looked up): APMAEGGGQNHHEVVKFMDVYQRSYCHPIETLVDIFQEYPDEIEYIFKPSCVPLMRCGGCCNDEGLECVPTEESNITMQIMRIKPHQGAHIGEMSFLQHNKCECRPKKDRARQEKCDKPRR
Method: (§1) Mutants were transiently expressed in CHO-K1 cells, and cell supernatants were collected for binding analysis by ELISA.
(§2) The plate was blocked with 30% ChemiBlock™ reagent (Millipore) in PBS for one hour at room temperature, and 30, 60, or 100 μl of CHO-K1 culture supernatant for each mutant, or 1 μg/ml of wild-type hVEGF₁₂₁, recombinant hVEGF₁₆₅, or recombinant mVEGF₁₆₅, was added to appropriate wells. After one hour of incubation, the plate was washed and incubated with a biotinylated goat polyclonal anti-VEGF antibody for one hour at room temperature. Detection was performed with HRP-conjugated streptavidin, followed by TMB chromogenic substrate (Calbiochem) using manufacturer protocol.

human VEGF165 [1] = target: T2, human VEGF165 (human, UniProt P15692 207-395); assay: sandwich ELISA, antibody coated
Method: as §1, §2

hVEGF121-G92A = target: T3, hVEGF121-G92A (human, UniProt P15692-9 27-147, G92A); assay: sandwich ELISA, antibody coated
T3 construct: Transiently expressed in CHO-K1 cells; culture supernatant used
T3 sequence (looked up): T1 sequence (looked up) with A89Q, G92A
Method: as §1, §2

hVEGF121-G88S = target: T4, hVEGF121-G88S (human, UniProt P15692-9 27-147, G88S); assay: sandwich ELISA, antibody coated
T4 construct: Transiently expressed in CHO-K1 cells; culture supernatant used
T4 sequence (looked up): T1 sequence (looked up) with G88S, A89Q
Method: as §1, §2

hVEGF121-M81A = target: T5, hVEGF121-M81A (human, UniProt P15692-9 27-147); assay: sandwich ELISA, antibody coated
T5 construct: Transiently expressed in CHO-K1 cells; culture supernatant used
T5 sequence (looked up): T1 sequence (looked up) with M81A, A89Q
Method: as §1, §2

wild-type hVEGF121 = target: T6, wild-type hVEGF121 (human, UniProt P15692-9 27-147); assay: sandwich ELISA, antibody coated
T6 sequence (looked up): T1 sequence (looked up) with A89Q
Method: as §1, §2

murine VEGF165 [2] = target: T7, murine VEGF165 (murine, UniProt Q00731-2 27-190); assay: sandwich ELISA, antibody coated
T7 construct: also called mVEGF165; rMu-VEGF165
T7 sequence (looked up): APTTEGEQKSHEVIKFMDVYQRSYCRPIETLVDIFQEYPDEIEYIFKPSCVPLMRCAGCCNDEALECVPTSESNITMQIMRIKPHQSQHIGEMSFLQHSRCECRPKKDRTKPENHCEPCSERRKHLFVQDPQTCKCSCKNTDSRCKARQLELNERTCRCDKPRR
Method: as §1, §2

human VEGF165 [3] = target: T2, human VEGF165; assay: cell-based or functional assay
human VEGF165 [4] = target: T2, human VEGF165; assay: Biacore (SPR)
human VEGF165 [5] = target: T2, human VEGF165; assay: cell-based or functional assay; remark: listed apart in the source
Target sequence in this assay (P15692 other isoform, or with tags, fused parts or gaps limits assumed): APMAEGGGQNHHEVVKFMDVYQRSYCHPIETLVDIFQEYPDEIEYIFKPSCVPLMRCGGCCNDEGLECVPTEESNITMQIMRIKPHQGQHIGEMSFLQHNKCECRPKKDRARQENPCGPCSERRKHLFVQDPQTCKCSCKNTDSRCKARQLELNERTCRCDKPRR

human VEGF165 [6] = target: T2, human VEGF165; assay: Biacore 2000, hVEGF165 amine-coupled on C1 chip, antibody injected, 1:1 fit
Method: (§3) The VEGF binding affinity of these IgGs was tested on a Biacore 2000® by injecting the antibodies over a very low density antigen surface. Human or murine VEGF₁₆₅ was immobilized via standard amine coupling methods to flow cells on a C1 (planar carboxy surface) chip. Approximately 85 RU of each antigen was immobilized and a reference flow cell was activated and blocked. Antibodies were injected over the chip surface for 400 seconds at two different concentrations, after which dissociation was monitored. Data was analyzed by Scrubber® using double referencing and fitting with a 1:1 interaction. Regenerations were performed with 90 mM HCl with 500 mM NaCl.
Target sequence in this assay (P15692 other isoform, or with tags, fused parts or gaps limits assumed): as above

murine VEGF165 [7] = target: T7, murine VEGF165; assay: Biacore 2000, mVEGF165 amine-coupled on C1 chip, antibody injected
Method: as §3

human VEGF165 [8] = target: T2, human VEGF165; assay: ELISA on hVEGF165; unstressed XPA.10.064.06
human VEGF165 [9] = target: T2, human VEGF165; assay: ELISA on hVEGF165; unstressed XPA.10.064.06; remark: listed apart in the source
human VEGF165 [10] = target: T2, human VEGF165; assay: ELISA on hVEGF165; XPA.10.064.06 after chemical stress (tBHP) without methionine
Method: (§4) For chemical stress, the antibodies were incubated overnight at room temperature with 0.1% tBHP in the presence or absence of 5 mM L-methionine. For thermal stress, the antibodies were incubated in polysorbate for four weeks at 40° C. in the presence or absence of 5 mM L-methionine. The ability of the antibodies to bind hVEGF₁₆₅ was analyzed by Biacore and ELISA.

human VEGF165 [11] = target: T2, human VEGF165; assay: ELISA on hVEGF165; XPA.10.064.06 after thermal stress in the presence of methionine
Method: as §4

human VEGF165 [12] = target: T2, human VEGF165; assay: ELISA on hVEGF165; XPA.10.064.06 after thermal stress without methionine
Method: as §4

human VEGF165 [13] = target: T2, human VEGF165; assay: ELISA on hVEGF165; XPA.10.064.06 after chemical stress (tBHP) in the presence of methionine
Method: as §4

Raw data (ELISA signal) (hVEGF121-Q89A): 0.985
fold binding over CHO background (hVEGF121-Q89A): 10.8 fold
Raw data (ELISA signal) (human VEGF165 [1]): 2.45
fold binding over CHO background (human VEGF165 [1]): 26.9 fold
Raw data (ELISA signal) (hVEGF121-G92A): 2.18
fold binding over CHO background (hVEGF121-G92A): 23.9 fold
Raw data (ELISA signal) (hVEGF121-G88S): 0.769
fold binding over CHO background (hVEGF121-G88S): 8.4 fold
Raw data (ELISA signal) (hVEGF121-M81A): 1.71
fold binding over CHO background (hVEGF121-M81A): 18.8 fold
Raw data (ELISA signal) (wild-type hVEGF121): 2.56
fold binding over CHO background (wild-type hVEGF121): 28 fold
Raw data (ELISA signal) (murine VEGF165 [2]): 0.0939
fold binding over CHO background (murine VEGF165 [2]): 1 fold
Molecule: control polyclonal goat anti-human VEGF (antibody)

Raw data (ELISA signal) (murine VEGF165 [2]): 0.0843
B1: Bevacizumab (antibody, V domains shown)
VH: EVQLVESGGGLVQPGGSLRLSCAASGYTFTNYGMNWVRQAPGKGLEWVGWINTYTGEPTYAADFKRRFTFSLDTSKSTAYLQMNSLRAEDTAVYYCAKYPHYYGSSHWYFDVWGQGTLVTVSS
VL: DIQMTQSPSSLSASVGDRVTITCSASQDISNYLNWYQQKPGKAPKVLIYFTSSLHSGVPSRFSGSGSGTDFTLTISSLQPEDFATYYCQQYSTVPWTFGQGTKVEIK

HPP: sf21-hVEGF165, scFvFc (IC50) (human VEGF165 [3]): 0.41 µg/mL
B2: XPA.10.064 scFv-Fc (Fc fusion, part only; not given: linker, gamma-2 Fc, junction, not shown: another chain or arm of the molecule; a dimerising Fc or GST; small tags and cut ends)
VH: EVQLVQSGAEVRKPGASVKVSCKASGYSFTGHYIHWVRQAPGQGLEWMGWINPYSGGTNFPREFQGRVTMTRDTSVNTVYMELTRLTSDDTSVYYCARDHRIVGGLDYWGQGTLVTVSS
VL: SYVLTQPPSASGTPGQRVTISCSGSSSNIGINYVYWYQQLPGTAPKLLIYRNDQRPSGVPDRFSGSKSGTSASLAISGLRSEDEADYYCATWDDSLSGVVFGGGTKVTVL

binding result (human VEGF165 [4]): binds
B3: XPA.10.064 after oxidation with tert-butylhydroperoxide (antibody, V domains shown)
VH: B2 VH
VL: B2 VL
modifications: partial methionine oxidation after tBHP: Met-48 39%, Met-70 0%, Met-81 28%
notes: also called oxidized XPA.10.064

HUVEC proliferation, geometric mean IC50 (human VEGF165 [5]): 0.174 nM
Kd (human VEGF165 [6]): 0.0917 nM
koff (human VEGF165 [6]): 1.8e-05 s⁻¹
kon (human VEGF165 [6]): 196000 M⁻¹ s⁻¹
B4: XPA.10.064.03 IgG2 (antibody, V domains shown)
VH: B2 VH with H100Q, R101M, I102V, V103H
VL: B2 VL
notes: IgG2

HUVEC proliferation, geometric mean IC50 (human VEGF165 [5]): 0.173 nM
Kd (murine VEGF165 [7]): 208 nM
Kd (human VEGF165 [6]): 0.121 nM
koff (human VEGF165 [6]): 2.07e-05 s⁻¹
kon (human VEGF165 [6]): 178000 M⁻¹ s⁻¹
EC50 (read off the curve) (human VEGF165 [8]): ~0.006 µg/mL
EC50 (read off the curve) (human VEGF165 [9]): ~0.006 µg/mL
B5: XPA.10.064.06 IgG2 (antibody, V domains shown)
VH: B2 VH with H100E, R101M, I102T, V103R
VL: B2 VL
notes: IgG2

EC50 (read off the curve) (human VEGF165 [10]): ~0.05 µg/mL
EC50 (read off the curve) (human VEGF165 [11]): ~0.006 µg/mL
EC50 (read off the curve) (human VEGF165 [12]): ~0.01 µg/mL
EC50 (read off the curve) (human VEGF165 [13]): ~0.02 µg/mL
B6: XPA.10.064.06 after oxidation (chemical stress with tBHP or thermal stress) (antibody, V domains shown)
VH: B2 VH with H100E, R101M, I102T, V103R
VL: B2 VL
modifications: partial methionine oxidation; after tBHP: Met-48 20%, Met-70 0%, Met-81 14%, Met-101 66%; degree after thermal stress not given
notes: also called oxidized XPA.10.064.06

Kd (human VEGF165 [6]): 0.197 nM
koff (human VEGF165 [6]): 2.94e-05 s⁻¹
kon (human VEGF165 [6]): 150000 M⁻¹ s⁻¹
B7: XPA.10.064.04 IgG2 (antibody, V domains shown)
VH: B2 VH with H100E, R101M, I102Q, V103N
VL: B2 VL
notes: IgG2

HUVEC proliferation, geometric mean IC50 (human VEGF165 [5]): 0.129 nM
Kd (murine VEGF165 [7]): 130 nM
Kd (human VEGF165 [6]): 0.0349 nM
koff (human VEGF165 [6]): 6.65e-06 s⁻¹
kon (human VEGF165 [6]): 207000 M⁻¹ s⁻¹
B8: XPA.10.064.07 IgG2 (antibody, V domains shown)
VH: B2 VH with H100E, R101M, I102H
VL: B2 VL
notes: IgG2

HUVEC proliferation, geometric mean IC50 (human VEGF165 [5]): 0.139 nM
Kd (human VEGF165 [6]): 0.0556 nM
koff (human VEGF165 [6]): 1.16e-05 s⁻¹
kon (human VEGF165 [6]): 216000 M⁻¹ s⁻¹
B9: XPA.10.064.10 IgG2 (antibody, V domains shown)
VH: B2 VH with H100E, R101M, I102V, V103W
VL: B2 VL
notes: IgG2
